Biological target: T1, human fibrinogen (human, UniProt P02671 20-629; P02675 31-491; P02679 27-437, limits assumed)
T1 construct: Bought protein, used as the negative control antigen; also called fibrinogen from human (Sigma)
T1 sequence (looked up) 1: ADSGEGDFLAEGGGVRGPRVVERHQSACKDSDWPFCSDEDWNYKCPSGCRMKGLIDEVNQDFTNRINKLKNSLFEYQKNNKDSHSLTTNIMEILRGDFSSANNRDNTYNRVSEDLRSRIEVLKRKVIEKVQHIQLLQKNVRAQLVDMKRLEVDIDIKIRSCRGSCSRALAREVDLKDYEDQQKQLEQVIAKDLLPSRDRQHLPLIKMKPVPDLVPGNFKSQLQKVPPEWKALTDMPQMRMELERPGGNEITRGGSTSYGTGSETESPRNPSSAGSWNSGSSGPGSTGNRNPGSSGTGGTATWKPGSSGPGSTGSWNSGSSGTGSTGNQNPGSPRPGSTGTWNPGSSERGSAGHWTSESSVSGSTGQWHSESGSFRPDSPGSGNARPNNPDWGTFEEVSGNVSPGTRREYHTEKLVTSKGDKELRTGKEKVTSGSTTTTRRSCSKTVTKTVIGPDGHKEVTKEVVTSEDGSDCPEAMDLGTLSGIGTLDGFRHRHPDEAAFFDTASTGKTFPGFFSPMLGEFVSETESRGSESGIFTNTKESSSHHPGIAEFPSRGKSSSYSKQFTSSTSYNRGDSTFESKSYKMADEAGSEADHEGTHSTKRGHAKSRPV
T1 sequence (looked up) 2: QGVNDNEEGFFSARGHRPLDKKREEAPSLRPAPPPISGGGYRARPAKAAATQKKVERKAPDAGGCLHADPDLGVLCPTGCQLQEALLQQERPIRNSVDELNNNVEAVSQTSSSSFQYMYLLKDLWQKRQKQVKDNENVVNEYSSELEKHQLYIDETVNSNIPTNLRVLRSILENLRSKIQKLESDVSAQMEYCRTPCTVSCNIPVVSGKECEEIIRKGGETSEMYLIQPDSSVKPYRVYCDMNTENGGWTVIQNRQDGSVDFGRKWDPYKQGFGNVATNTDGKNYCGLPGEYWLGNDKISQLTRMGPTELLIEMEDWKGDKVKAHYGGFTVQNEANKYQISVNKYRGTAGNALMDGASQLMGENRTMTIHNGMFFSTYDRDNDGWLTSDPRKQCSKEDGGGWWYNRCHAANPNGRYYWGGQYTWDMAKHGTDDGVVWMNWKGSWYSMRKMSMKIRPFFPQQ
T1 sequence (looked up) 3: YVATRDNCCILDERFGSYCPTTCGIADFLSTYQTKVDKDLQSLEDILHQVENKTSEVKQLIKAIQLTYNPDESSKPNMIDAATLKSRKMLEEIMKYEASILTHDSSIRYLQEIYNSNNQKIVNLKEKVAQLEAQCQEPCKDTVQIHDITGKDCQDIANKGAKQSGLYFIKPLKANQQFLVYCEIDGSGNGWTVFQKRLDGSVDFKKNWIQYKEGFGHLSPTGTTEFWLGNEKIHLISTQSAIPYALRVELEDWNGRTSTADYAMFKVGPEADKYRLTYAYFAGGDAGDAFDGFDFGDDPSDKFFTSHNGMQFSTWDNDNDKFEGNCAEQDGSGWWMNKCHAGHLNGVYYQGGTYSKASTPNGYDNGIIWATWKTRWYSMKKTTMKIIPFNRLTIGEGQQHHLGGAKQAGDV
Assay: ELISA, HRP-conjugated polyclonal rabbit anti-reteplase antibody

binding result: no binding
B1: recombinant (3D5 VL-(G4S)3-VH scFv α fibrin)-reteplase polypeptide (other)
chain: DIQMTQSPSSLSASVGDRVTITCRASQDVSNNVAWYQQKPGKAPKLLIFWSPWLYSGVPSRFSGSGSGTDFTLTISSLQPEDFATYYCQQGWDSPVTFGQGTKVEIKRGSTSGSGKPGSGEGSTKGEVQLVESGGGLVQPGGSLRLSCAASGFTISDFGIHWVRQAPGKGLEWVASIWPSGGYTYYADSVKGRFTISADTSKNTAYLQMNSLRAEDTAVYYCARSWFYSWYDYWGQGTLVTVSSASGGGGSGGGGSGGGGSSYQGNSDCYFGNGSAYRGTHSLTESGASCLPWNSMILIGKVYTAQNPSAQALGLGKHNYCRNPDGDAKPWCHVLKNRRLTWEYCDVPSCSTCGLRQYSQPQFRIKGGLFADIASHPWQAAIFAKHRRSPGERFLCGGILISSCWILSAAHCFQERFPPHHLTVILGRTYRVVPGEEEQKFEVEKYIVHKEFDDDTYDNDIALLQLKSDSSRCAQESSVVRTVCLPPADLQLPDWTECELSGYGKHEALSPFYSERLKEAHVRLYPSSRCTSQHLLNRTVTDNMLCAGDTRSGGPQANLHDACQGDSGGPLVCLNDGRMTLVGIISWGLGCGQKDVPGVYTKVTNYLDWIRDNMRPA
notes: Fusion: 3D5 scFv (VL, flexible linker, VH) at the N-terminus of reteplase through a flexible linker; also called (3D5 scFv)-reteplase
